Data on one substance can be found in publication PMC4923907.

This assay addresses GG-SpaA E269A mutant, residues 35-302 (Lactobacillus rhamnosus GG (ATCC 53103)). Description: SEC; size-exclusion chromatography of purified E269A protein, Sephacryl S-200 26/60, 20 mM Tris pH 7.5, 150 mM NaCl, 1 mM EDTA; two forms recovered, trimeric (E1) and monomeric (E2).

The stoichiometry N is the number of molecules, sites or subunits per partner or assembly. With “GG-SpaA E269A mutant, residues 35-302 (domain or fragment)”, the stoichiometry N is 3.
